In US20250129355A1:

T1: Upstream protein 1 (Up1) from Desulfonema ishimotonii
T1 sequence: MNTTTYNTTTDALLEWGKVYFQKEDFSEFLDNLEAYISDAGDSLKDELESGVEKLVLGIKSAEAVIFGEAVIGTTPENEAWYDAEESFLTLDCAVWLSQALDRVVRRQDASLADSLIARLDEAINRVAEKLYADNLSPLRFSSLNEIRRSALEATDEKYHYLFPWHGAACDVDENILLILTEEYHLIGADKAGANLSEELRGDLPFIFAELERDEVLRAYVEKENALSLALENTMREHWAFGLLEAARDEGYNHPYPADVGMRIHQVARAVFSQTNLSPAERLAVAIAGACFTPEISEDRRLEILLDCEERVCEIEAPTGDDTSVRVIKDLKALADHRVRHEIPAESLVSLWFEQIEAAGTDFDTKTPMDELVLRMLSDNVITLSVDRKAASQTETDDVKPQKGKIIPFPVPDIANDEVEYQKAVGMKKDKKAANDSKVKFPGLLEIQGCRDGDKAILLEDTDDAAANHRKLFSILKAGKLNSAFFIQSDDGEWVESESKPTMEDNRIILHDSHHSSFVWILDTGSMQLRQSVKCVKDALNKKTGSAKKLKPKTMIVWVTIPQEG


Experiments:
[1] = system: T1, Upstream protein 1 (Up1) from Desulfonema ishimotonii
[2] = system: TwinStrep-Up1Δloop mutant
[3] = system: Up1 fragment amino acids 296-565
[4] = system: Up1 fragment residues 396-565
[5] = system: Up1 single alanine substitution mutants
[6] = system: Up1 with D430 deleted
[7] = system: Up1 with M427 deleted
[8] = system: Up1-Up3 complex
[9] = biological target: Up1 fused to an 3×HA epitope tag (expressed from a plasmid in HEK293T cells) (Desulfonema ishimotonii); experiment: cell-based or functional assay

| efficiency of Up1 cleavage in HEK293T cells across a panel of endogenous transcripts [9] | Molecule | Up1 cleavage in vitro (SDS-PAGE) [1] | Up1 cleavage in vitro (western blot) [2] | cleavage of truncated Up1 [3] | cleavage of truncated Up1 in vitro (SDS-PAGE) [4] | gRAMP-CHAT mediated protein cleavage of alanine mutants [5] | Up1 cleavage in vitro (western blot) [6] | Up1 cleavage in vitro (western blot) [7] | cleavage of Up1 within the Up1-Up3 complex (SDS-PAGE) [8] | proteolytic cleavage of Up1 in the purified Up1-Up3 complex (SDS-PAGE, Coomassie) [8] | cleavage of the protein substrate in vitro (SDS-PAGE) [1] | substrate turnover in vitro [1] |
| --- | --- | --- | --- | --- | --- | --- | --- | --- | --- | --- | --- | --- |
|  | gRAMP(D429A/D654A)-CHAT-crRNA complex | disrupting the catalytic sites of gRAMP (D429A/D654A) did not |  |  |  |  |  |  |  |  |  |  |
| 3 to 22% | gRAMP-CHAT-crRNA complex from Desulfonema ishimotonii | the largest protein, Up1, is specifically cleaved in response to target RNA | truncating the loop by four residues, or deleting M427 alone, prevented in vitro cleavage | Smaller versions of Up1 containing amino acids 296-565 retained full activity for processing | Up1 fragments containing residues 396-565 were fully active in vitro | No single alanine mutation blocks CHAT protease activity | the deletion of D430 had no effect | truncating the loop by four residues, or deleting M427 alone, prevented in vitro cleavage | an Up1-Up3 complex which could be cleaved by gRAMP-CHAT in the presence of target RNA | only in the lane with gRAMP-CHAT (+) and target RNA (+) the Up1 band becomes weaker and two new bands appear, at about 50 kDa and just above 15 kDa; much Up1 stays uncleaved; the Up3 band at 25 kDa is unchanged; no new bands without gRAMP-CHAT or with gRAMP-CHAT but without target RNA | the substrate is neighboring protein WP_124327587.1 (FIG. 2), that cleavage of the substrate is dependent on presence of a target RNA | cleaving 100-fold excess of Up1 substrate in minutes |
|  | gRAMP-CHAT(H615A/C658A)-crRNA complex (enzyme, part only; not given: gRAMP, His tag, crRNA) chain, part: MSNPIRDIQDRLKTAKFDNKDDMMNLASSLYKYEKQLMDSSEATLCQQGLSNRPNSFSQLSQFRDSDIQSKAGGQTGKFWQNEYEACKNFQTHKERRETLEQIIRFLQNGAEEKDADDLLLKTLARAYFHRGLLYRPKGFSVPARKVEAMKKAIAYCEIILDKNEEESEALRIWLYAAMELRRCGEEYPENFAEKLFYLANDGFISELYDIRLFLEYTEREEDNNFLDMILQENQDRERLFELCLYKARACFHLNQLNDVRIYGESAIDNAPGAFADPFWDELVEFIRMLRNKKSELWKEIAIKAWDKCREKEMKVGNNIYLSWYWARQRELYDLAFMAQDGIEKKTRIADSLKSRTTLRIQELNELRKDAHRKQNRRLEDKLDRIIEQENEARDGAYLRRNPPCFTGGKREEIPFARLPQNWIAVHFYLNELESHEGGKGGHALIYDPQKAEKDQWQDKSFDYKELHRKFLEWQENYILNEEGSADFLVTLCREIEKAMPFLFKSEVIPEDRPVLWIPHGFLHRLPLHAAMKSGNNSNIEIFWERHASRYLPAWHLFDPAPYSREESSTLLKNFEEYDFQNLENGEIEVYAPSSPKKVKEAIRENPAILLLLCAGEADMTNPFRSCLKLKNKDMTIFDLLTVEDVRLSGSRILLGAAESDMVPPLEFSVDEHLSVSGAFLSHKAGEIVAGLWTVDSEKVDECYSYLVEEKDFLRNLQEWQMAETENFRSENDSSLFYKIAPFRIIGFPAE | mutating the catalytic residues of the CHAT protease (H615A/C658A) abolished activity |  |  |  |  |  |  |  |  |  |  |
